Data on one substance can be found in patent US20020049180A1.

For the test, the target named is GST-fusion protein containing amino acids 327-517 of KIAA0175 (human) (UniProt Q14680). The test is described as follows: cell-based or functional assay.

“Ataxia telangiectasia mutated (ATM) (from UniProt Q13315 2-3056) (enzyme)” showed an increase of phosphorylation by ATM immunoprecipitated from gamma-irradiated cells of 2 to 3 fold.
